First the molecules themselves.
B1: CDK5 regulatory subunit-associated protein 3 (Homo sapiens), Q96JB5 (parent)
chain: MEDHQHVPIDIQTSKLLDWLVDRRHCSLKWQSLVLTIREKINAAIQDMPESEEIAQLLSGSYIHYFHCLRILDLLKGTEASTKNIFGRYSSQRMKDWQEIIALYEKDNTYLVELSSLLVRNVNYEIPSLKKQIAKCQQLQQEYSRKEEECQAGAAEMREQFYHSCKQYGITGENVRGELLALVKDLPSQLAEIGAAAQQSLGEAIDVYQASVGFVCESPTEQVLPMLRFVQKRGNSTVYEWRTGTEPSVVERPHLEELPEQVAEDAIDWGDFGVEAVSEGTDSGISAEAAGIDWGIFPESDSKDPGGDGIDWGDDAVALQITVLEAGTQAPEGVARGPDALTLLEYTETRNQFLDELMELEIFLAQRAVELSEEADVLSVSQFQLAPAILQGQTKEKMVTMVSVLEDLIGKLTSLQLQHLFMILASPRYVDRVTEFLQQKLKQSQLLALKKELMVQKQQEALEEQAALEPKLDLLLEKTKELQKLIEADISKRYSGRPVNLMGTSL

This assay covers variants of B1. The note with it: with ufc1_human UFC1, Q9Y3C8.
ufc1_human UFC1, Q9Y3C8, sequence (Q9Y3C8 whole entry): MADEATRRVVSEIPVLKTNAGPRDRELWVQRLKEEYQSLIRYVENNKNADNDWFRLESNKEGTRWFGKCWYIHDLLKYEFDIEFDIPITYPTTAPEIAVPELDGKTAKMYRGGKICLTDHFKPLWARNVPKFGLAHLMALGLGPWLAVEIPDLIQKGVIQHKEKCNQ
As to I267A;W269A, the “effect of a mutation on the interaction” value is on record as “decreasing interaction strength”.

The values are drawn from IntAct's records for PubMed 37595036.
